Reference: paper PMC4480679 (Biochemistry, 2015)

Molecular target: T1, PhnI-his (E. coli, UniProt P16687 1-354)
T1 sequence (looked up): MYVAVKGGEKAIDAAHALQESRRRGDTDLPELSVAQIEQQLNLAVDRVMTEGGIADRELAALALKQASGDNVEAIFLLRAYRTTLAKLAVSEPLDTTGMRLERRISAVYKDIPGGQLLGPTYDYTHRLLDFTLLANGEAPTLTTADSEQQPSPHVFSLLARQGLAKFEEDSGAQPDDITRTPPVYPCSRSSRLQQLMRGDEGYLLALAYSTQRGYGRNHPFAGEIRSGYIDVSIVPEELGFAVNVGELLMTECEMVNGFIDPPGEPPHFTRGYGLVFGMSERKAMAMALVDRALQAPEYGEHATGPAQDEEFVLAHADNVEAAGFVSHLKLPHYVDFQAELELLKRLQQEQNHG
Experiment: N-terminal Edman sequencing of the purified complex

stoichiometry N: 0.9 ± 0.1 PhnG per PhnI
B1: PhnG (natural protein, E. coli, UniProt P16685 1-150, looked up)
chain: MHADTATRQHWMSVLAHSQPAELAARLNALNITADYEVIRAAETGLVQIQARMGGTGERFFAGDATLTRAAVRLTDGTLGYSWVQGRDKQHAERCALIDALMQQSRHFQNLSETLIAPLDADRMARIAARQAEVNASRVDFFTMVRGDNA
